B1: TPR t1 (parent)
chain: GACCAAUCUGCCCUCAGAGCUCGAGAACAUCUUCGGAUGCAGAGGAGGCAGGCUUCGGUGGCGCGAUAGCGCCAACGUCCUCAACCUCCAAUGCAUCCCACCACAUGAUGAUGCCUGAAGAGCCUUGGUUUUUUG

Variants of: B1
Assay: polymerase ribozyme fitness, log enrichment relative to wild type (log ratio); higher = more active; in vitro selection for triplet polymerase activity
How it was run: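 One round of in vitro selection, in triplicate, was applied to PCR-built, transcribed mutant libraries of each subunit of a heterodimeric triplet polymerase ribozyme. The steps were annealing with a biotinylated primer, partner subunit and triplets, incubation frozen at −7 °C, gel excision of extended constructs, streptavidin-bead capture and RT-PCR. Fitness is the logarithm, base 2, of genotype enrichment over wild-type enrichment from inverse-variance-weighted replicate averages of Illumina-sequenced inputs and outputs, keeping genotypes with ≥10 input reads and ≥1 read per output.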

Row | Variant | polymerase ribozyme fitness (log ratio)
1 | C98U U126G G128U | -2.42
2 | U96A C104U | -0.116
3 | U96A C104A | -3.3
4 | A95C U131A | -0.642
5 | U96A C102A | -3.43
6 | C97G C115G G120C | -5.54
7 | C97A U125A | -5.2
8 | U92G C94U | -4.52
9 | C97G U129A | -5.28
10 | A90G C102A G117A | -5.32
11 | A90C U125A | -1.2
12 | A95C A119U | -1.28
13 | G93A G120A | 0.446
14 | G93A G120U | -0.0719
15 | C94U U112A | 1.59
16 | C94U A111G | 0.127
17 | C97G G107C A111U | -7.12
18 | G93A C98A | -5.11
19 | A91U G110C A121U | -5.81
20 | U96G | -0.532
21 | U96C | 0.0976

Row | Variant | polymerase ribozyme fitness (log ratio)
22 | U96A | -0.895
23 | U96A C123A | -1.45
24 | C98A A111U G122A C124G | -6.05
25 | C99U U130A | -3.71
26 | U96C U133A | -0.456
27 | C98U C114G | -5.02
28 | C98U C114U | -3.88
29 | C94A U112G | -1.48
30 | G93U G110A G120U | -4.68
31 | C99U U129G | -3.83
32 | A91C U96G | -1.78
33 | A95G U126C | -0.892
34 | A91C U112A | -0.47
35 | C94G C114U | -3.17
36 | C97U G120C | 0.554
37 | C97U G120U | -0.768
38 | C97U G120A | 0.391
39 | A90C U109A A118U | -5.95
40 | G93C C104U A108G | -2.77
41 | C99U G113A G117A | -5.78
42 | C94U G128C | -4.18

Row | Variant | polymerase ribozyme fitness (log ratio)
43 | C97U A105C | -4.58
44 | A91G C101U | -1.08
45 | A90G U116A | -1.88
46 | U92A G113A U125C | -3.27
47 | A95U U109G G120C | -5.29
48 | C98A C123A | -3.79
49 | G93A C124A | 0.841
50 | A95C G113U G120C U125A | -3.79
51 | G93A C115A U131A | -0.388
52 | A100C A111G | 0.924
53 | C98A U109A | -5.81
54 | U96C U112A A121U | 1.86
55 | U96A C97A | -2.95
56 | A90C C124U | 0.931
57 | U92C U112C | 0.33
58 | G93U U130A U131C | -1.29
59 | U96A G110A | -2.45
60 | U92G A118C | -4
61 | U96A G120U G128U | -1.74
62 | A91U G117A G120C G135C | -3.63
63 | G93U U96G U106A G127C | -3.43

Row | Variant | polymerase ribozyme fitness (log ratio)
64 | C97G U112A | -3.48
65 | C94A C97U G120U | -1.04
66 | U96G C124A | 1.39
67 | C94A C104A C123U | -1.42
68 | A95C C102A U133A G135C | -2.89
69 | C94G C114G G120C | -4.95
70 | C97U U116C | -0.713
71 | U92C U116C | -2.42
72 | C94U U130G | -1.07
73 | U92C U112G G113U U130C | -5.75
74 | C99A A103C C104A | -4.54
75 | G93C C123A | -1.09
76 | A90G A121C | 1.62
77 | G93C C102U | -3.11
78 | G93U U106A | -1.03
79 | G93A G135U | -2.04
80 | C94U C115U A121G | -2.09
81 | G93C U132C | -1.62
82 | U92A U133A | -2.62
83 | C98A A118U | -4.71
84 | C94U C102G | -6.09
